{"source": "patent US20110265198", "assay_in_all_cases": "cell_activity", "key": {"ZFN 18477 (synthetic)": {"test_system": "ZFN 18477 (synthetic)", "conditions": "pair with 18473; Cel-I assay"}, "ZFN 25096 (synthetic)": {"test_system": "ZFN 25096 (synthetic)", "conditions": "pair with 18473; Cel-I assay"}, "ZFN 18473 (synthetic)": {"test_system": "ZFN 18473 (synthetic)", "conditions": "pair with 25096 (26.5% with 18477); Cel-I assay"}}}
{"sequence": "CTAGAAAGACTGGAGTTGCAGATCACGA (double strand) [18477 target]", "values": [{"measurement": "activity", "setting": "ZFN 18477 (synthetic)", "value": 26.5, "unit": "% NHEJ"}]}
{"sequence": "CTAGAAAGACTGGAGTTGCAGATCACGA (double strand) [25096 target]", "values": [{"measurement": "activity", "setting": "ZFN 25096 (synthetic)", "value": 35.7, "unit": "% NHEJ"}]}
{"sequence": "GATGGGCGGGAGTCTTCTGGGCAGGCTT (double strand) [18473 target]", "values": [{"measurement": "activity", "setting": "ZFN 18473 (synthetic)", "value": 35.7, "unit": "% NHEJ"}]}
